The target in this experiment is T1, human PD-L1-Fc (R&D Systems) (human, UniProt Q9NZQ7 19-239).
T1 construct: Bought from R&D Systems; Biotinylated in-house for the phage selection; also called huPD-L1-Fc; human PD-L1-Fc antigen; not shown: Fc part of the bought fusion
The experiment is described as follows: soluble Affimer ELISA. (In general: An ELISA detects its analyte on a solid surface through an enzyme-linked reagent.)

T1 sequence (Q9NZQ7 19-239 limits assumed): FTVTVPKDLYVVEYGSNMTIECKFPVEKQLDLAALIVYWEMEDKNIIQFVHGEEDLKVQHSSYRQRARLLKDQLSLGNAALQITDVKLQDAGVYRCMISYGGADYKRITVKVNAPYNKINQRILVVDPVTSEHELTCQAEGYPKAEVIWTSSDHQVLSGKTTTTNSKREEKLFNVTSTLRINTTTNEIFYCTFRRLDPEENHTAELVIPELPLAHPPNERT

B1: Clone 42 (designed binder)
chain: MIPGGLSEAKPATPEIQEIVDKVKPQLEEKTGETYGKLEAVQYKTQVVIQHIWWDFVGTNYYIKVRAGDNKYMHLKVFKSLSRLEPAGHQEDLVLTGYQVDKNKDDELTGF
notes: His-tagged
Consider B1, for which the binding result is “binds”.

B2: Clone 5 (designed binder)
chain: MIPGGLSEAKPATPEIQEIVDKVKPQLEEKTGETYGKLEAVQYKTQVVFLDWKQHWRGTNYYIKVRAGDNKYMHLKVFKSLFNDKHNSTEDLVLTGYQVDKNKDDELTGF
notes: His-tagged
In the case of B2, the binding result is recorded as “binds”.

B3: Clone 4 (designed binder)
chain: MIPGGLSEAKPATPEIQEIVDKVKPQLEEKTGETYGKLEAVQYKTQVVFQTWDHAWTGTNYYIKVRAGDNKYMHLKVFKSLFAAETQQYYEDLVLTGYQVDKNKDDELTGF
notes: His-tagged
Consider B3, for which the binding result is “binds”.

B4: Clone 66 (designed binder)
chain: MIPGGLSEAKPATPEIQEIVDKVKPQLEEKTGETYGKLEAVQYKTQVVNLKPDVQGSGTNYYIKVRAGDNKYMHLKVFKSLIVVKRYWYVEDLVLTGYQVDKNKDDELTGF
notes: His-tagged
Regarding B4, the binding result is given as “binds”.

B5: Clone 50 (designed binder)
chain: MIPGGLSEAKPATPEIQEIVDKVKPQLEEKTGETYGKLEAVQYKTQVVGRQVKWAWTGTNYYIKVRAGDNKYMHLKVFKSLFKQHHNISEEDLVLTGYQVDKNKDDELTGF
notes: His-tagged
Consider B5, for which the binding result is “binds”.

B6: Clone 63 (designed binder)
chain: MIPGGLSEAKPATPEIQEIVDKVKPQLEEKTGETYGKLEAVQYKTQVVQEYEDQEWAGTNYYIKVRAGDNKYMHLKVFKSLHLWNQQIYREDLVLTGYQVDKNKDDELTGF
notes: His-tagged
On to B6, for which the binding result is given as “binds”.

B7: Clone 55 (designed binder)
chain: MIPGGLSEAKPATPEIQEIVDKVKPQLEEKTGETYGKLEAVQYKTQVVAGWSLPPHLGTNYYIKVRAGDNKYMHLKVFKSLINHAGQKSDEDLVLTGYQVDKNKDDELTGF
notes: His-tagged
Turning to B7, the binding result was “binds”.

B8: Clone 28 (designed binder)
chain: MIPGGLSEAKPATPEIQEIVDKVKPQLEEKTGETYGKLEAVQYKTQVVAAFSVHPSSGTNYYIKVRAGDNKYMHLKVFKSLEKYHNIWYVEDLVLTGYQVDKNKDDELTGF
notes: His-tagged
With B8, the binding result is recorded as “binds”.

B9: Clone 59 (designed binder)
chain: MIPGGLSEAKPATPEIQEIVDKVKPQLEEKTGETYGKLEAVQYKTQVVREPALWHFRGTNYYIKVRAGDNKYMHLKVFKSLTFKVDTWKVEDLVLTGYQVDKNKDDELTGF
notes: His-tagged
As for B9, the binding result is reported as “binds”.

B10: Clone 37 (designed binder)
chain: MIPGGLSEAKPATPEIQEIVDKVKPQLEEKTGETYGKLEAVQYKTQVVHHFAEVKWYGTNYYIKVRAGDNKYMHLKVFKSLKITGSTLTFEDLVLTGYQVDKNKDDELTGF
notes: His-tagged
For B10, the binding result is reported as “binds”.

B11: Clone 41 (designed binder)
chain: MIPGGLSEAKPATPEIQEIVDKVKPQLEEKTGETYGKLEAVQYKTQVVGTRDEWHWVGTNYYIKVRAGDNKYMHLKVFKSLFVKDDGRVDEDLVLTGYQVDKNKDDELTGF
notes: His-tagged
Take B11: the binding result was “binds”.

B12: Clone 44 (designed binder)
chain: MIPGGLSEAKPATPEIQEIVDKVKPQLEEKTGETYGKLEAVQYKTQVVRTKETKKSWGTNYYIKVRAGDNKYMHLKVFKSLQKIHAIFYVEDLVLTGYQVDKNKDDELTGF
notes: His-tagged
B12: the binding result is reported as “binds”.

B13: Clone 33 (designed binder)
chain: MIPGGLSEAKPATPEIQEIVDKVKPQLEEKTGETYGKLEAVQYKTQVVNQPQPPWIRGTNYYIKVRAGDNKYMHLKVFKSLNWNSPNLTWEDLVLTGYQVDKNKDDELTGF
notes: His-tagged
For the molecule B13, the binding result is “binds”.

B14: Clone 64 (designed binder)
chain: MIPGGLSEAKPATPEIQEIVDKVKPQLEEKTGETYGKLEAVQYKTQVVIAHIHWKYFGTNYYIKVRAGDNKYMHLKVFKSLHLAKGQWREEDLVLTGYQVDKNKDDELTGF
notes: His-tagged
In the case of B14, the binding result was “binds”.

B15: Clone 51 (designed binder)
chain: MIPGGLSEAKPATPEIQEIVDKVKPQLEEKTGETYGKLEAVQYKTQVVSHHASPSHIGTNYYIKVRAGDNKYMHLKVFKSLTTDPNWDVHEDLVLTGYQVDKNKDDELTGF
notes: His-tagged
On to B15, for which the binding result was “binds”.

B16: Clone 61 (designed binder)
chain: MIPGGLSEAKPATPEIQEIVDKVKPQLEEKTGETYGKLEAVQYKTQVVPTGTHQWAAGTNYYIKVRAGDNKYMHLKVFKSLWASLESGQNEDLVLTGYQVDKNKDDELTGF
notes: His-tagged
In the case of B16, the binding result was “binds”.

B17: Clone 47 (designed binder)
chain: MIPGGLSEAKPATPEIQEIVDKVKPQLEEKTGETYGKLEAVQYKTQVVGVKQTWNWNGTNYYIKVRAGDNKYMHLKVFKSLFGLNDDEPVEDLVLTGYQVDKNKDDELTGF
notes: His-tagged
In the case of B17, the binding result is “binds”.

B18: Clone 31 (designed binder)
chain: MIPGGLSEAKPATPEIQEIVDKVKPQLEEKTGETYGKLEAVQYKTQVVAQDLSAFQIGTNYYIKVRAGDNKYMHLKVFKSLIFAPLKPWREDLVLTGYQVDKNKDDELTGF
notes: His-tagged
With B18, the binding result is given as “binds”.

B19: Clone 35 (designed binder)
chain: MIPGGLSEAKPATPEIQEIVDKVKPQLEEKTGETYGKLEAVQYKTQVVKYETHFYYEGTNYYIKVRAGDNKYMHLKVFKSLPKRWAYNAYEDLVLTGYQVDKNKDDELTGF
notes: His-tagged
With B19, the binding result is “binds”.

B20: Clone 39 (designed binder)
chain: MIPGGLSEAKPATPEIQEIVDKVKPQLEEKTGETYGKLEAVQYKTQVVEIRPVWDWSGTNYYIKVRAGDNKYMHLKVFKSLFDHESKPTAEDLVLTGYQVDKNKDDELTGF
notes: His-tagged
Consider B20, for which the binding result is reported as “binds”.

B21: Clone 46 (designed binder)
chain: MIPGGLSEAKPATPEIQEIVDKVKPQLEEKTGETYGKLEAVQYKTQVVVQHSLWYFQGTNYYIKVRAGDNKYMHLKVFKSLFKHPEENPVEDLVLTGYQVDKNKDDELTGF
notes: His-tagged
As for B21, the binding result is “binds”.

B22: Clone 43 (designed binder)
chain: MIPGGLSEAKPATPEIQEIVDKVKPQLEEKTGETYGKLEAVQYKTQVVVQHPQWHWKGTNYYIKVRAGDNKYMHLKVFKSLVQQRDVWINEDLVLTGYQVDKNKDDELTGF
notes: His-tagged
Take B22: the binding result is “binds”.

B23: Clone 27 (designed binder)
chain: MIPGGLSEAKPATPEIQEIVDKVKPQLEEKTGETYGKLEAVQYKTQVVDVKPKWQWTGTNYYIKVRAGDNKYMHLKVFKSLFEGEDRDAVEDLVLTGYQVDKNKDDELTGF
notes: His-tagged
For B23, the binding result is “binds”.

B24: Clone 6 (designed binder)
chain: MIPGGLSEAKPATPEIQEIVDKVKPQLEEKTGETYGKLEAVQYKTQVVLSEAVYIWAGTNYYIKVRAGDNKYMHLKVFKSLNSRWYGPLGEDLVLTGYQVDKNKDDELTGF
notes: His-tagged
Turning to B24, the binding result was “binds”.

B25: Clone 65 (designed binder)
chain: MIPGGLSEAKPATPEIQEIVDKVKPQLEEKTGETYGKLEAVQYKTQVVDYRAIWHWWGTNYYIKVRAGDNKYMHLKVFKSLFHAEGDIWDEDLVLTGYQVDKNKDDELTGF
notes: His-tagged
With B25, the binding result is “binds”.

B26: Clone 60 (designed binder)
chain: MIPGGLSEAKPATPEIQEIVDKVKPQLEEKTGETYGKLEAVQYKTQVVPQVQEPWWIGTNYYIKVRAGDNKYMHLKVFKSLYKAYIQGWNEDLVLTGYQVDKNKDDELTGF
notes: His-tagged
As to B26, the binding result is recorded as “binds”.

B27: Clone 69 (designed binder)
chain: MIPGGLSEAKPATPEIQEIVDKVKPQLEEKTGETYGKLEAVQYKTQVVYKVDNNNYQGTNYYIKVRAGDNKYMHLKVFKSLITWQLNQPREDLVLTGYQVDKNKDDELTGF
notes: His-tagged
As for B27, the binding result was “binds”.

B28: Clone 57 (designed binder)
chain: MIPGGLSEAKPATPEIQEIVDKVKPQLEEKTGETYGKLEAVQYKTQVVELDGDHTWLGTNYYIKVRAGDNKYMHLKVFKSLRQLHRIWYFEDLVLTGYQVDKNKDDELTGF
notes: His-tagged
In the case of B28, the binding result is “binds”.

B29: Clone 252 (designed binder)
chain: MIPGGLSEAKPATPEIQEIVDKVKPQLEEKTGETYGKLEAVQYKTQVVAVRPIFKWAGTNYYIKVRAGDNKYMHLKVFKSLFHGPLDNYTEDLVLTGYQVDKNKDDELTGF
notes: His-tagged
For B29, the binding result is given as “binds”.

B30: Clone 7 (designed binder)
chain: MIPGGLSEAKPATPEIQEIVDKVKPQLEEKTGETYGKLEAVQYKTQVVRQYYEWSWVGTNYYIKVRAGDNKYMHLKVFKSLFESPTEDNDEDLVLTGYQVDKNKDDELTGF
notes: His-tagged
With B30, the binding result is listed as “binds”.

B31: Clone 53 (designed binder)
chain: MIPGGLSEAKPATPEIQEIVDKVKPQLEEKTGETYGKLEAVQYKTQVVAWDWLPAYRGTNYYIKVRAGDNKYMHLKVFKSLFKFQNESFAEDLVLTGYQVDKNKDDELTGF
notes: His-tagged
With B31, the binding result was “binds”.

B32: Clone 45 (designed binder)
chain: MIPGGLSEAKPATPEIQEIVDKVKPQLEEKTGETYGKLEAVQYKTQVVREYPHFQGYGTNYYIKVRAGDNKYMHLKVFKSLILNAGGIRWEDLVLTGYQVDKNKDDELTGF
notes: His-tagged
As for B32, the binding result is given as “binds”.

B33: Clone 250 (designed binder)
chain: MIPGGLSEAKPATPEIQEIVDKVKPQLEEKTGETYGKLEAVQYKTQVVRDPDVFVFSGTNYYIKVRAGDNKYMHLKVFKSLWYYNDNQSGEDLVLTGYQVDKNKDDELTGF
notes: His-tagged
Regarding B33, the binding result is “binds”.

The values above are taken from patent US20250243277A1 (AVACTA LIFE SCIENCES, published 2025).
